The values that follow come from PMC6637149, “Cryo-EM and directed evolution reveal how Arabidopsis nitrilase specificity is influenced by its quaternary structure” (Communications Biology, 2019).

Series [1] deals with the molecule itself. The experiment in a line: cryo-EM structure; purified AtNIT4 filaments (~0.15 mg/ml) in 50 mM Tris-HCl pH 8.0, 100 mM NaCl, blotted at ~10% humidity, 25 °C; helical reconstruction, one helical turn treated as a single particle.
Series [2] deals with the molecule itself. The experiment in a line: negative-stain electron microscopy with 3D helical reconstruction; purified NIT filaments on carbon-coated copper grids, 2% uranyl acetate; iterative helical real-space reconstruction.

B1: Arabidopsis thaliana nitrilase 4 (AtNIT4), wild type (enzyme, UniProt P46011 1-355, looked up)
chain: MSMQQETSHMTAAPQTNGHQIFPEIDMSAGDSSSIVRATVVQASTVFYDTPATLDKAERLLSEAAENGSQLVVFPEAFIGGYPRGSTFELAIGSRTAKGRDDFRKYHASAIDVPGPEVERLALMAKKYKVYLVMGVIEREGYTLYCTVLFFDSQGLFLGKHRKLMPTALERCIWGFGDGSTIPVFDTPIGKIGAAICWENRMPSLRTAMYAKGIEIYCAPTADSRETWLASMTHIALEGGCFVLSANQFCRRKDYPSPPEYMFSGSEESLTPDSVVCAGGSSIISPLGIVLAGPNYRGEALITADLDLGDIARAKFDFDVVGHYSRPEVFSLNIREHPRKAVSFKTSKVMEDESV
notes: Nitrilase 4 of Arabidopsis thaliana, NP_197622.1, AT5G22300; 355 residues in all, 289 built in the model; Forms open-ended left-handed helical filaments built of dimers, so no fixed number of copies. pET-21b(+) usually adds a C-terminal His6 tag (surmised); also called AtNIT4 wt; source: E. coli BL21-CodonPlus (DE3)-RIL, pET-21b(+), purified (Ni-NTA, SEC)
In the case of B1, the binding result in series [1] is given as “binds”.

B2: AtNIT4 R95T L169A S224Q (enzyme, Arabidopsis thaliana, UniProt P46011 1-355, looked up)
chain: MSMQQETSHMTAAPQTNGHQIFPEIDMSAGDSSSIVRATVVQASTVFYDTPATLDKAERLLSEAAENGSQLVVFPEAFIGGYPRGSTFELAIGSTTAKGRDDFRKYHASAIDVPGPEVERLALMAKKYKVYLVMGVIEREGYTLYCTVLFFDSQGLFLGKHRKLMPTAAERCIWGFGDGSTIPVFDTPIGKIGAAICWENRMPSLRTAMYAKGIEIYCAPTADQRETWLASMTHIALEGGCFVLSANQFCRRKDYPSPPEYMFSGSEESLTPDSVVCAGGSSIISPLGIVLAGPNYRGEALITADLDLGDIARAKFDFDVVGHYSRPEVFSLNIREHPRKAVSFKTSKVMEDESV
notes: Nitrilase 4 of Arabidopsis thaliana, NP_197622.1, with three substitutions selected from a site-saturation library made in the vector of the wild type; Selected by directed evolution from the AtNIT4 pET-21b(+) vector; full length is inferred from the parent construct; also called the mutant; NIT4 mutant; source: E. coli BL21-CodonPlus (DE3)-RIL, pET-21b(+), purified (Ni-NTA, SEC)
Consider B2, for which the binding result in series [2] was “binds”.

B3: AtNIT4 R95T (enzyme, Arabidopsis thaliana, UniProt P46011 1-355, looked up)
chain: MSMQQETSHMTAAPQTNGHQIFPEIDMSAGDSSSIVRATVVQASTVFYDTPATLDKAERLLSEAAENGSQLVVFPEAFIGGYPRGSTFELAIGSTTAKGRDDFRKYHASAIDVPGPEVERLALMAKKYKVYLVMGVIEREGYTLYCTVLFFDSQGLFLGKHRKLMPTALERCIWGFGDGSTIPVFDTPIGKIGAAICWENRMPSLRTAMYAKGIEIYCAPTADSRETWLASMTHIALEGGCFVLSANQFCRRKDYPSPPEYMFSGSEESLTPDSVVCAGGSSIISPLGIVLAGPNYRGEALITADLDLGDIARAKFDFDVVGHYSRPEVFSLNIREHPRKAVSFKTSKVMEDESV
notes: Nitrilase 4 of Arabidopsis thaliana, NP_197622.1, with the substitution R95T; Full length is inferred from the parent construct; source: E. coli BL21-CodonPlus (DE3)-RIL, pET-21b(+), purified (Ni-NTA, SEC)
With B3, the binding result in series [2] is recorded as “binds”.
